Source: PMC545490, “Mapping and mutation of the conserved DNA polymerase interaction motif (DPIM) located in the C-terminal domain of fission yeast DNA polymerase δ subunit Cdc27” (BMC Molecular Biology, 2004)

Target: T1, LexA-Pol1-278-527 (S. pombe, UniProt P28040 278-527)
T1 construct: Pol1, catalytic subunit of DNA polymerase α, S. pombe, amino acids 278–527; source: yeast two-hybrid fusion (pBTM116, S. cerevisiae CTY10-5d)
T1 sequence (looked up): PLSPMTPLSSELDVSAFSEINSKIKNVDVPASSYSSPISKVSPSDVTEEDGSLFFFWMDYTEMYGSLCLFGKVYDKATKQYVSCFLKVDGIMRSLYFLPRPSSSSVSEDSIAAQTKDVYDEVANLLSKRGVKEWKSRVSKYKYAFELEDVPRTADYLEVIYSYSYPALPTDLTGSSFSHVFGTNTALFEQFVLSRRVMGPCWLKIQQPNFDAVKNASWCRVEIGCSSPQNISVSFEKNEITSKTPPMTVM
Test: two-hybrid; Gal4 AD prey (pACT2) and LexA bait (pBTM116) in S. cerevisiae lexA op-lacZ strain CTY10-5d; β-galactosidase activity in Miller units
Conditions: partners not purified

B1: Gal4-Cdc27-273-352-P7 (domain or fragment, S. pombe, UniProt P30261 273-352, looked up)
chain: TEAKSAAPDEPQEIIKSVSGGKRRGKRKVKKYATTKDEEGFLVTKEEEVWESFSAAANISTGTSNVVRNKPTTVNIATKK
notes: positions worked out from oligonucleotides CDC27-P6F and CDC27-P7F and the printed DEE 309–311; also called Cdc27-P7; source: yeast two-hybrid fusion (pACT2, S. cerevisiae CTY10-5d)
  strength of the interaction, percent of the wild-type value: ~10 % of wild-type
